Patent US20250043022A1 (JIANGSU HENGRUI PHARMACEUTICALS, published 2025)
Residue numbers refer to the chain shown, from its start.

B1: Chi13 (antibody, human IgG1, kappa, V domains shown)
VH: QVQLKESGPGLVAPSQSLSITCTVSGFSLTNYAISWVRQPPGKGLEWLGVIWTGGGTHYNSALKSRLSISKDNSKSQVFLKMNSLQTDDTARYYCARKGNYYGSSLYYYAMNYWGQGTSVTVSS
VL: DIQMTQTTSSLSASLGDRVTISCRASQDISNYLNWYQQKPDGTVKLLIYYTSRLQSGVPSRFSGSGSGTDYSLSISNLEQEDIATYFCQQGDTLPYTFGGGTKLEIRT
notes: chimeric antibody, hIgG1/kappa
B2: PL-18 (bispecific antibody)
chain 1: not shown
chain 2: DIVLTQSPASLAVSPGQRATITCRASESVSIHGTHLMHWYQQKPGQPPKLLIYAASKLESGVPARFSGSGSGTDFTLTINPVEAEDTANYYCQQSFEDPLTFGQGTKLEIKRTVASGIPPKIECLPIDISIDEGKCLTVASAFTGEPTPEVTWSTGGRKIHSQEQGRFHIENTDDSTTLTIKDVQKQDGGLYTLTLRNEFGSDSATVNIHIRSI
chain 3: not shown
chain 4: not shown
B3: PL-11 (bispecific antibody)
chain 1: not shown
chain 2: B2 chain 2 with C136V
chain 3: not shown
chain 4: not shown
B4: PL-4 (bispecific antibody)
chain 1: not shown
chain 2: B2 chain 2 with R112G, T113G, V114G, A115G, C136V, A142C
chain 3: not shown
chain 4: not shown
B5: PL-10 (bispecific antibody)
chain 1: not shown
chain 2: B2 chain 2 with R112G, T113G, V114G, A115G, C136V, A142C
chain 3: not shown
chain 4: not shown
B6: PL-1 (bispecific antibody)
chain 1: not shown
chain 2: B2 chain 2 with R112G, T113G, V114G, A115G, C136V, S176L, T180I
chain 3: not shown
chain 4: not shown
B7: PL-9 (bispecific antibody)
chain 1: not shown
chain 2: B2 chain 2 with R112G, T113G, V114G, A115G
chain 3: not shown
chain 4: not shown
B8: PL-8 (bispecific antibody)
chain 1: not shown
chain 2: B2 chain 2 with R112G, T113G, V114G, A115G, C136V
chain 3: not shown
chain 4: not shown
B9: PL-19 (bispecific antibody)
chain 1: not shown
chain 2: B2 chain 2 with C136V, A142C
chain 3: not shown
chain 4: not shown
B10: PL-5 (bispecific antibody)
chain 1: not shown
chain 2: B2 chain 2 with R112G, T113G, V114G, A115G, C136V
chain 3: not shown
chain 4: not shown
B11: PL-6 (bispecific antibody)
chain 1: not shown
chain 2: B2 chain 2 with R112G, T113G, V114G, A115G
chain 3: not shown
chain 4: not shown
B12: PL-7 (bispecific antibody)
chain 1: not shown
chain 2: B2 chain 2 with R112G, T113G, V114G, A115G, C136V, A142C
chain 3: not shown
chain 4: not shown
B13: PL-3 (bispecific antibody)
chain 1: not shown
chain 2: B2 chain 2 with R112G, T113G, V114G, A115G
chain 3: not shown
chain 4: not shown
B14: PL-2 (bispecific antibody)
chain 1: not shown
chain 2: B2 chain 2 with R112G, T113G, V114G, A115G, C136V
chain 3: not shown
chain 4: not shown
B15: hu13H2L2 (antibody, human IgG1, kappa, V domains shown)
VH: EVTLKESGPVLVKPTETLTLTCTVSGFSLSNYAISWIRQPPGKALEWLGVIWTGGGTHYNSALKSRLTISKDTSKSQVVLTMTNMDPVDTARYYCARKGNYYGSSLYYYAMNYWGQGTTVTVSS
VL: DIQMTQSPSSLSASVGDRVTITCRASQDISNYLNWYQQKPDGAPKLLIYYTSRLQSGVPSRFSGSGSGTDYTLTISSLQPEDFATYYCQQGDTLPYTFGGGTKVEIKR
B16: hu13H2L3 (antibody, human IgG1, kappa, V domains shown)
VH: B15 VH
VL: B15 VL with A43T, P44V
B17: hu13H1L2 (antibody, human IgG1, kappa, V domains shown)
VH: B15 VH with G49A, R92T
VL: B15 VL
B18: hu13H3L1 (antibody, human IgG1, kappa, V domains shown)
VH: B15 VH with S30T, A44G, T73N
VL: B15 VL with D41G, G42K, Y71F
B19: hu13H2L1 (antibody, human IgG1, kappa, V domains shown)
VH: B15 VH
VL: B15 VL with D41G, G42K, Y71F
B20: hu13H3L2 (antibody, human IgG1, kappa, V domains shown)
VH: B15 VH with S30T, A44G, T73N
VL: B15 VL
B21: hu13H1L3 (antibody, human IgG1, kappa, V domains shown)
VH: B15 VH with G49A, R92T
VL: B15 VL with A43T, P44V
B22: hu13H1L1 (antibody, human IgG1, kappa, V domains shown)
VH: B15 VH with G49A, R92T
VL: B15 VL with D41G, G42K, Y71F
B23: hu13H3L3 (antibody, human IgG1, kappa, V domains shown)
VH: B15 VH with S30T, A44G, T73N
VL: B15 VL with A43T, P44V
B24: HJ-3 (bispecific antibody)
chain 1: not shown
chain 2: DIQMTQSPSSVSASVGDRVTITCRASQDIANYLSWYQQKPGKSPKLLIYGTSNLEVGVPSRFSGSRSGTDFTLTISSLQPEDFATYYCLQDKEFPRTFGGGTKVEIKGGGGSSGAPRFLTRPLAFVVSVGKDATLSSQIVGNPTPQVSWEKDKQPVTAGARFRLAQDGDLYRLKILDLQLSDSGQYVSRARNAIGEAFACLGLQVDAEA
chain 3: EVQLVQSGAEVKKPGSSVKVSCKASGYTFSNYLIEWVRQAPGQGLEWIGVIDPGVGDTNYNENFKGRATLTADKSTSTAYIELSSLRSEDTAVYYCAREDNTGTAFDYWGQGTTVTVSSASTKGPSVFPLAPSSKSTSGGTAALGCLVKDYFPEPVTVSWNSGALTSGVHTFPAVLQSSGLYSLSSVVTVPSSSLGTQTYICNVNHKPSNTKVDKKVEPKSCDKTHTCPPCPAPEAAGGPSVFLFPPKPKDTLMISRTPEVTCVVVDVSHEDPEVKFNWYVDGVEVHNAKTKPREEQYNSTYRVVSVLTVLHQDWLNGKEYKCKVSNKALPAPIEKTISKAKGQPREPQVCTLPPSREEMTKNQVSLSCAVKGFYPSDIAVEWESNGQPENNYKTTPPVLDSDGSFFLVSKLTVDKSRWQQGNVFSCSVMHEALHNHYTQKSLSLSPGKDYKDDDDK
chain 4: SIVMTQTPLSLSVTPGQPASISCKASQSVSSDVTWYLQKPGQSPQLLIYYVSEHYTGVPDRFSGSGYGTDFTLKISRVEAEDVGVYYCQQHHRFPLTFGQGTKLEIKRTVAAPSVFIFPPSDEQLKSGTASVVCLLNNFYPREAKVQWKVDNALQSGNSQESVTEQDSKDSTYSLSSTLTLSKADYEKHKVYACEVTHQGLSSPVTKSFNRGEC
B25: 2-F2 (bispecific antibody)
heavy 1: not shown
light 1: EIVLTQSPDFQSVTPKEKVTITCSASSSVSHMYWYQQKPDQSPKLLIYRTSNLASGVPSRFSGSGSGTDFTLTINSLEAEDAATYYCQQYHSYPLMFGQGTKLEIKRTVAAPSVFIFPPSDEQLKSGTASVVCLLNNFYPREAKVQWKVDNALQSGNSQESVTEQDSKDSTYSLSSTLTLSKADYEKHKVYACEVTHQGLSSPVTKSFNRGEC
heavy 2: not shown
light 2: not shown

How the values were obtained:
[1] = target: T1, human PSMA antigen (R&D SYSTEM, 4234-ZN-010) (human, UniProt Q04609 44-750); experiment: ELISA, plate-bound PSMA antigen
T1 construct: bought antigen
T1 sequence (Q04609 44-750 limits assumed): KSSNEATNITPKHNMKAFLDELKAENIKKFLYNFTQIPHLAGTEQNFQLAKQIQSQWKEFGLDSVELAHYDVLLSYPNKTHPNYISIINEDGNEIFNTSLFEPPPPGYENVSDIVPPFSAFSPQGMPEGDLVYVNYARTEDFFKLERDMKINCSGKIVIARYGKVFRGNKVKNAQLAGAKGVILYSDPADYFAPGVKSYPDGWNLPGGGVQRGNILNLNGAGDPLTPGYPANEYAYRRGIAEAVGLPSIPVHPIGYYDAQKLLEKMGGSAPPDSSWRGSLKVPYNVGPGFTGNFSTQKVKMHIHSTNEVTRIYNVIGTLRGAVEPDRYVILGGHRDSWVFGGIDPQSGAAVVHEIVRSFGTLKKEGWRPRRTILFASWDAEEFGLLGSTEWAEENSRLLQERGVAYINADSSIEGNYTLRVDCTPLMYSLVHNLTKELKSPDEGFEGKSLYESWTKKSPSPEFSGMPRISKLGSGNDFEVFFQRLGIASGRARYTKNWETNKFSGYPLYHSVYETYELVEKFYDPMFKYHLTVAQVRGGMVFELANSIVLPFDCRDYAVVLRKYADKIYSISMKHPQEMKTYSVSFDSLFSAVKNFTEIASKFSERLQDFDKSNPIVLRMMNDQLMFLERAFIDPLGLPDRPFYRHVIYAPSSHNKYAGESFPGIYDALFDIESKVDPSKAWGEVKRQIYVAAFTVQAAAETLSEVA
Experimental: To test the ability of the PSMA-targeting humanized antibodies of the present disclosure to bind to PSMA antigen, the ELISA method was used in this test example to measure the binding of the PSMA-targeting humanized antibodies to human PSMA antigen (purchased from R&D SYSTEM, 4234-ZN-010). The specific steps are as follows: A 96-well plate was coated with PSMA antigen at 1 μg/well and placed at 4° C. overnight. After the supernatant was discarded, the plate was blocked with 5% skim milk for 2 h. Different concentrations of humanized antibodies were prepared using 1% BSA. The initial concentration was 10 μg/mL and was serially diluted 4-fold to obtain 12 concentrations. After the blocked 96-well plate was washed twice, the […] was added, and the plate was incubated at 4° C. for 1 h. After four washes, the plate was incubated with Strepidation-HRP secondary antibody (1:10,000) at 4° C. for 1 h. After color development with TMB, the reaction was stopped with 0.1 M sulfuric acid.

[2] = target: T2, human PSMA on cells (Cho-hPSMA, CHO-K1 cells overexpressing full-length human PSMA) (human, UniProt Q04609 1-750); experiment: flow cytometry, Cho-hPSMA cells
T2 construct: whole, on cells; also called cell surface PSMA; PSMA-expressing Lncap cells
T2 sequence (Q04609 whole entry): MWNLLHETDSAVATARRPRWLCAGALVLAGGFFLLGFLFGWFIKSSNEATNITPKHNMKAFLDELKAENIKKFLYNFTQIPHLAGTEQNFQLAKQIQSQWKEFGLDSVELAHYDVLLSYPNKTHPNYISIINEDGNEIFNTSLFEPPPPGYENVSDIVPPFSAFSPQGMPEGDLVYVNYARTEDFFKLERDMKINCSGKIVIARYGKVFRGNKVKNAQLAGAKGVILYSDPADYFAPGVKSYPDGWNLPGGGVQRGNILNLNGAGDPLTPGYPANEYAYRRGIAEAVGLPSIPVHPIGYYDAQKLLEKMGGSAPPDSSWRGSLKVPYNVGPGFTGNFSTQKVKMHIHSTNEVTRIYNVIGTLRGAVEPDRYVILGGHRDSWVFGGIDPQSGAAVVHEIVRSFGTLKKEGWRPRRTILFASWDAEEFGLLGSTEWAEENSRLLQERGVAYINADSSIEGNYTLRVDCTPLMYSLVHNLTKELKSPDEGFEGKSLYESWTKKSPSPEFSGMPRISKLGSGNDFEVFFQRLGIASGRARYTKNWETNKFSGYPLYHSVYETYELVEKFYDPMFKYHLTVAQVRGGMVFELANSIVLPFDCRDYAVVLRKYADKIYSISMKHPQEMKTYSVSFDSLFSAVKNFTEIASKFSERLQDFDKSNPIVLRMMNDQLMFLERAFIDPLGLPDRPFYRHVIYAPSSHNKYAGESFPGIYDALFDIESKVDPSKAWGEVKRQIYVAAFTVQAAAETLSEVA
Experimental: The binding activity of antibodies to the stably transfected cell strain Cho-hPSMA, which overexpresses human PSMA, was measured by flow cytometry in this test example. The full-length gene encoding human PSMA was cloned into the mammalian cell expression vector pCDH. HEK293T cells (ATCC® CRL-11268) were co-transfected with three plasmids-pVSV-G, pCMV-dR8.91, and pCDH-human PSMA- to package viruses. After 48 h of transfection, viruses were collected to infect CHO-K1 cells.
Experiment 1: Cho-hPSMA was cultured in F12 medium with 10% FBS. The medium to which cells were inoculated was incubated in a 37° C., 5% CO₂ incubator for 2 days, and cells were added to a cell plate at 1×10⁵ cells/well and washed by centrifugation. Antibodies were serially diluted, and the antibody solutions were added to the cell plate at 100 μL/well. The plate was incubated at 4° C. for 1 h and then washed. An AF488-Goat Anti-human IgG Fc fluorescent secondary antibody dilution (1:400) was added to the cell plate at 100 μL/well, and the plate was incubated at 4° C. for 1 h and then washed. PBS was added to the cell plate at 100 μL/well before plate reading.

hPDL1 = hPDL1 (human, UniProt Q9NZQ7 19-238); experiment: ELISA
Chain of hPDL1 (Q9NZQ7 19-238 limits assumed): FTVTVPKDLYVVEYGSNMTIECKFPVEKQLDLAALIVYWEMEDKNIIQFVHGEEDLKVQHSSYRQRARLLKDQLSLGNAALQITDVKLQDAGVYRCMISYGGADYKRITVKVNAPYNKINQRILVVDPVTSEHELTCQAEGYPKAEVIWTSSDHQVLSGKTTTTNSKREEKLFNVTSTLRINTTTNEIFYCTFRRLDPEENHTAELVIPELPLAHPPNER

hCTLA4 = hCTLA4 (human, UniProt P16410 36-161); experiment: ELISA
Chain of hCTLA4 (P16410 36-161 limits assumed): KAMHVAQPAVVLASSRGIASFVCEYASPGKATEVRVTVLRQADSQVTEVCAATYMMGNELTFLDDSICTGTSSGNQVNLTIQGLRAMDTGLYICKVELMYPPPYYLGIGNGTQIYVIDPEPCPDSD

hIL5 = hIL5 (human, UniProt P05113 20-134); experiment: ELISA
hTSLP = hTSLP (human, UniProt Q969D9 29-159); experiment: ELISA
[3] = target: T2, human PSMA on cells (Cho-hPSMA, CHO-K1 …); experiment: cell-based or functional assay

Binder | EC50 [2] [µg/mL] | EC50 (hPDL1) [nM] | EC50 (hCTLA4) [nM] | also measured
B1 | 1.21 | – | – | EC50 [1]: 0.0409 µg/mL; Top (maximum absorbance) [1]: 2.11 absorbance
B2 | – | 1.6 | 6.7 | –
B3 | – | 0.6 | 5.6 | –
B4 | – | 0.7 | 6.5 | –
B5 | – | 0.6 | 6.9 | –
B6 | – | 1.6 | 16.5 | –
B7 | – | 0.6 | 5.5 | –
B8 | – | 1.4 | 14.5 | –
B9 | – | 1.6 | 6.5 | –
B10 | – | 0.7 | 6.7 | –
B11 | – | 0.8 | 5.3 | –
B12 | – | 0.5 | 7.3 | –
B13 | – | 0.6 | 7.9 | –
B14 | – | 0.5 | 8 | –
B15 | 1.09 | – | – | –
B16 | 1.14 | – | – | –
B17 | 0.981 | – | – | –
B18 | 1.05 | – | – | –
B19 | 1.05 | – | – | –
B20 | 1.1 | – | – | –
B21 | 1.01 | – | – | –
B22 | 0.947 | – | – | –
B23 | 1.5 | – | – | –
B24 | – | – | – | EC50 (hIL5): 17.4 nM; EC50 (hTSLP): 3.23 nM
B25 | – | – | – | cytotoxic activity against Lncap, EC50 (LDH release, PBMC E:T 10:1, 48 h) [3]: 0.0084 nM; cytotoxic activity against Lncap, Maximum lysis rate % [3]: 48.7%
